Experimental data: the Human Domainome abundance scans (Beltran et al. 2025)
± gives the uncertainty stated by the source.

Assay: abundance fitness (aPCA) (normalised: wild type 0, dead -1); higher = more abundant; growth selection in yeast, the domain comes from the species named
Details: Homo sapiens

**Q.** Which abundance fitness does the source give for “Scaffold attachment factor B2 K53V, Q14151” here?
**A.** The abundance fitness was -0.577 ± 0.083.

**Q.** For “Scaffold attachment factor B2 K53W, Q14151”, which abundance fitness is on record?
**A.** The abundance fitness was -0.39 ± 0.11.

**Q.** For “Scaffold attachment factor B2 K53Y, Q14151”, which abundance fitness is on record?
**A.** The abundance fitness was -0.054 ± 0.43.

**Q.** With “Scaffold attachment factor B2 K61A, Q14151” as the substance, how does the abundance fitness read?
**A.** Its abundance fitness is 0.022 ± 0.084.

**Q.** With “Scaffold attachment factor B2 K61C, Q14151” as the substance, how does the abundance fitness read?
**A.** Its abundance fitness is -0.303 ± 0.15.

**Q.** Which abundance fitness does the source give for “Scaffold attachment factor B2 K61D, Q14151” here?
**A.** Its abundance fitness is -0.082 ± 0.17.

**Q.** For “Scaffold attachment factor B2 K61G, Q14151”, which abundance fitness is on record?
**A.** Its abundance fitness is -0.015 ± 0.1.

**Q.** With “Scaffold attachment factor B2 K61H, Q14151” as the substance, how does the abundance fitness read?
**A.** The abundance fitness was -0.128 ± 0.11.

**Q.** For “Scaffold attachment factor B2 K61L, Q14151”, which abundance fitness is on record?
**A.** The abundance fitness was -0.282 ± 0.083.

**Q.** For “Scaffold attachment factor B2 K61M, Q14151”, which abundance fitness is on record?
**A.** The abundance fitness was -0.186 ± 0.11.

**Q.** For “Scaffold attachment factor B2 K61N, Q14151”, which abundance fitness is on record?
**A.** The abundance fitness was -0.002 ± 0.095.

**Q.** With “Scaffold attachment factor B2 K61P, Q14151” as the substance, how does the abundance fitness read?
**A.** Its abundance fitness is -0.203 ± 0.13.

**Q.** With “Scaffold attachment factor B2 K61Q, Q14151” as the substance, how does the abundance fitness read?
**A.** Its abundance fitness is -0.072 ± 0.096.

**Q.** For “Scaffold attachment factor B2 K61R, Q14151”, which abundance fitness is on record?
**A.** The abundance fitness was -0.184 ± 0.095.

**Q.** Which abundance fitness does the source give for “Scaffold attachment factor B2 K61S, Q14151” here?
**A.** The abundance fitness was -0.359 ± 0.091.

**Q.** With “Scaffold attachment factor B2 K61T, Q14151” as the substance, how does the abundance fitness read?
**A.** Its abundance fitness is -0.22 ± 0.17.

**Q.** With “Scaffold attachment factor B2 K61V, Q14151” as the substance, how does the abundance fitness read?
**A.** Its abundance fitness is -0.094 ± 0.095.

**Q.** Which abundance fitness does the source give for “Scaffold attachment factor B2 K61W, Q14151” here?
**A.** Its abundance fitness is -0.357 ± 0.1.

**Q.** For “Scaffold attachment factor B2 K61Y, Q14151”, which abundance fitness is on record?
**A.** The abundance fitness was -0.792 ± 0.32.

**Q.** Which abundance fitness does the source give for “Scaffold attachment factor B2 K62C, Q14151” here?
**A.** The abundance fitness was -0.303 ± 0.12.

**Q.** With “Scaffold attachment factor B2 K62D, Q14151” as the substance, how does the abundance fitness read?
**A.** Its abundance fitness is -0.123 ± 0.13.

**Q.** Which abundance fitness does the source give for “Scaffold attachment factor B2 K62E, Q14151” here?
**A.** Its abundance fitness is -0.002 ± 0.1.

**Q.** For “Scaffold attachment factor B2 K62F, Q14151”, which abundance fitness is on record?
**A.** The abundance fitness was -0.385 ± 0.1.

**Q.** Which abundance fitness does the source give for “Scaffold attachment factor B2 K62G, Q14151” here?
**A.** Its abundance fitness is -0.115 ± 0.07.

**Q.** With “Scaffold attachment factor B2 K62H, Q14151” as the substance, how does the abundance fitness read?
**A.** The abundance fitness was -0.083 ± 0.15.

**Q.** For “Scaffold attachment factor B2 K62L, Q14151”, which abundance fitness is on record?
**A.** Its abundance fitness is -0.212 ± 0.11.

**Q.** For “Scaffold attachment factor B2 K62M, Q14151”, which abundance fitness is on record?
**A.** The abundance fitness was -0.288 ± 0.19.

**Q.** With “Scaffold attachment factor B2 K62N, Q14151” as the substance, how does the abundance fitness read?
**A.** Its abundance fitness is -0.246 ± 0.14.

**Q.** Which abundance fitness does the source give for “Scaffold attachment factor B2 K62P, Q14151” here?
**A.** Its abundance fitness is -0.407 ± 0.2.

**Q.** For “Scaffold attachment factor B2 K62Q, Q14151”, which abundance fitness is on record?
**A.** The abundance fitness was -0.125 ± 0.13.

**Q.** Which abundance fitness does the source give for “Scaffold attachment factor B2 K62R, Q14151” here?
**A.** The abundance fitness was -0.075 ± 0.078.

**Q.** For “Scaffold attachment factor B2 K62S, Q14151”, which abundance fitness is on record?
**A.** Its abundance fitness is -0.125 ± 0.095.

**Q.** With “Scaffold attachment factor B2 K62V, Q14151” as the substance, how does the abundance fitness read?
**A.** The abundance fitness was -0.163 ± 0.1.

**Q.** With “Scaffold attachment factor B2 K62W, Q14151” as the substance, how does the abundance fitness read?
**A.** Its abundance fitness is -0.375 ± 0.12.

**Q.** For “Scaffold attachment factor B2 K62Y, Q14151”, which abundance fitness is on record?
**A.** The abundance fitness was -0.447 ± 0.37.

**Q.** With “Scaffold attachment factor B2 K65A, Q14151” as the substance, how does the abundance fitness read?
**A.** The abundance fitness was -0.138 ± 0.12.

**Q.** For “Scaffold attachment factor B2 K65C, Q14151”, which abundance fitness is on record?
**A.** Its abundance fitness is -0.145 ± 0.12.

**Q.** With “Scaffold attachment factor B2 K65D, Q14151” as the substance, how does the abundance fitness read?
**A.** Its abundance fitness is 0.036 ± 0.14.

**Q.** Which abundance fitness does the source give for “Scaffold attachment factor B2 K65F, Q14151” here?
**A.** Its abundance fitness is -0.396 ± 0.22.

**Q.** Which abundance fitness does the source give for “Scaffold attachment factor B2 K65H, Q14151” here?
**A.** The abundance fitness was 0.463 ± 0.23.

**Q.** For “Scaffold attachment factor B2 K65I, Q14151”, which abundance fitness is on record?
**A.** The abundance fitness was -0.241 ± 0.14.

**Q.** For “Scaffold attachment factor B2 K65L, Q14151”, which abundance fitness is on record?
**A.** Its abundance fitness is -0.205 ± 0.1.

**Q.** Which abundance fitness does the source give for “Scaffold attachment factor B2 K65M, Q14151” here?
**A.** The abundance fitness was -0.181 ± 0.11.

**Q.** Which abundance fitness does the source give for “Scaffold attachment factor B2 K65N, Q14151” here?
**A.** The abundance fitness was -0.148 ± 0.37.

**Q.** For “Scaffold attachment factor B2 K65P, Q14151”, which abundance fitness is on record?
**A.** The abundance fitness was -0.054 ± 0.18.

**Q.** For “Scaffold attachment factor B2 K65Q, Q14151”, which abundance fitness is on record?
**A.** The abundance fitness was -0.309 ± 0.28.

**Q.** With “Scaffold attachment factor B2 K65R, Q14151” as the substance, how does the abundance fitness read?
**A.** The abundance fitness was -0.136 ± 0.099.

**Q.** Which abundance fitness does the source give for “Scaffold attachment factor B2 K65T, Q14151” here?
**A.** The abundance fitness was 0.044 ± 0.17.

**Q.** Which abundance fitness does the source give for “Scaffold attachment factor B2 K65V, Q14151” here?
**A.** The abundance fitness was -0.111 ± 0.086.

**Q.** For “Scaffold attachment factor B2 K65W, Q14151”, which abundance fitness is on record?
**A.** The abundance fitness was -0.269 ± 0.12.

**Q.** For “Scaffold attachment factor B2 K65Y, Q14151”, which abundance fitness is on record?
**A.** The abundance fitness was -0.35 ± 0.16.

**Q.** Which abundance fitness does the source give for “Scaffold attachment factor B2 L30A, Q14151” here?
**A.** The abundance fitness was -0.28 ± 0.099.

**Q.** For “Scaffold attachment factor B2 L30C, Q14151”, which abundance fitness is on record?
**A.** Its abundance fitness is -0.708 ± 0.094.

**Q.** With “Scaffold attachment factor B2 L30D, Q14151” as the substance, how does the abundance fitness read?
**A.** Its abundance fitness is -0.086 ± 0.15.

**Q.** With “Scaffold attachment factor B2 L30E, Q14151” as the substance, how does the abundance fitness read?
**A.** The abundance fitness was -0.232 ± 0.094.
